Measurements as given in publication PMC13730216 (2026).

Biological target: CXCL12 (Homo sapiens, UniProt P48061)
Assay: BLI

Chain of CXCL12 (P48061 22-89): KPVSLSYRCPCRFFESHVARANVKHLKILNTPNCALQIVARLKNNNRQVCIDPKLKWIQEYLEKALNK

Kd: 390 nM
B1: miniCXCR4-WRAP truncated extracellular/ligand-binding part fused to designed WRAP (protein)
chain: MEGISIYTSDNYTEEMGSGDYDSMKEPCFREENANFNKIFLPTIYSIIFLTGIVGNGLVILVMGYQKKLRSMTDKYRLHLSVADLLFVITLPFWAVDAVANWYFGNFLCKAVHVIYTVNLYSSVLILAFISLDRYLAIVHATNSQRPRKLLAEKVVYVGVWIPALLLTIPDFIFANVSEADDRYICDRFYPNDLWVVVFQFQHIMVGLILPGIVILSCYCIIISKLSHSKGHQKRKALKTTVILILAFFACWLPYYIGISIDSFILLEIIKQGCEFENTVHKWISITEALAFFHCCLNPILYAFLGAKFKTSAQHALTS
modifications: truncated CXCR4 with designed loops fused to WRAP; biotinylated CXCL12
